The MegaScale stability set (Tsuboyama et al. 2023)

B1: EEHEE_rd4_0363 (parent)
chain: VTVDIKGMEYHFDNPEEAKKFAERMAKELGGELKVENGTLKVE

Variants of: B1
Assay: folding stability dG (cDNA display proteolysis); higher = more stable
Details: PBS, room temperature

Folding stability dG [kcal/mol], by site and new letter:
G7: C 1.72
V3: I 1.18 | T 0.19 | N -0.005 | C 1.34 | F 0.603 | K -0.032 | R -0.231 | H -0.104 | L 1.04 | P 0.059 | S 0.004 | G 0.059 | D -0.088 | Q 0.039 | A 0.392 | W 0.119 | E -0.171 | M 0.639 | Y 0.332
H11: C 2.21 | S 1.33 | R 1.87 | L 1.55 | W 2.26 | K 1.73 | N 1.32 | D 0.422 | M 1.54 | T 1.77 | Q 1.39 | P 0.291 | A 1.16 | Y 2.36 | E 0.894 | G 0.524 | I 1.77 | V 1.84 | F 2.13
N14: Q 0.996 | V 0.902 | T 2.07 | H 1.3 | R 1.15 | S 2.11 | G 1.08 | L 1.02 | K 1.08 | A 0.941 | E 1.18 | D 2.33 | I 0.929 | M 0.77 | C 1.81 | F 0.914
D4: S 2.98 | M 3.14 | P 0.415 | K 2.77 | N 2.67 | F 3.35 | E 2.56 | Y 3.35 | L 3.5 | V 3.47 | H 2.91 | R 2.75 | I 3.73 | T 2.85 | C 3.39 | Q 2.75 | G 1.39 | A 2.45 | W 3.59
I5: H 0.78 | F 1.44 | A 0.423 | M 0.754 | P -0.167 | K 0.088 | S 0.289 | C 1.99 | Y 1.52 | L 1.23 | G 0.128 | T 0.201 | V 1.88 | W 1.49 | Q 0.05 | E 0.155 | R 0.036 | D 0.025
E9: F 2.66 | Y 2.6 | A 1.99 | N 1.71 | T 2.55 | I 3.25 | M 2.92 | D 0.904 | P 1.47 | S 2.32 | Q 2.69 | L 3.44 | V 2.93 | G 1.26 | K 3.05 | C 3.28 | H 2.51 | R 2.9 | W 2.25
T2: I 2.37 | M 1.71 | Q 1.03 | V 2.21 | R 1.7 | W 2.04 | P 0.448 | L 1.81 | S 1.31 | G 0.389 | F 1.65 | H 1.26 | A 1.1 | E 0.41 | Y 1.52 | K 1.95 | D 0.711 | N 1.1
M8: F 2.11 | D 1.24 | T 2.26 | W 1.78 | K 2.44 | S 1.55 | G 0.564 | Q 2.05 | E 1.63 | V 2.52 | C 2.23 | A 1.54 | H 1.99 | Y 2.06 | R 2.41 | N 1.58 | I 2.46 | L 1.93 | P -0.136
D13: N 1.88 | S 2 | M 1.68 | K 1.82 | L 1.68 | G 1.51 | P 1.6 | E 1.9 | I 1.68 | C 2.42 | W 1.58 | Y 1.22 | A 1.95 | R 1.74 | F 1.41 | V 1.64 | T 1.93 | Q 1.73 | H 1.58
